Data from patent US20150147318A1 (ZOETIS SERVICES, published 2015).

T1: recombinant canine Nerve Growth Factor (Canis lupus familiaris NGF) (canine (Canis lupus familiaris), UniProt Q29074 110-229 (pig entry), limits assumed)
T1 construct: also called canine NGF; Dog NGF
T1 chain: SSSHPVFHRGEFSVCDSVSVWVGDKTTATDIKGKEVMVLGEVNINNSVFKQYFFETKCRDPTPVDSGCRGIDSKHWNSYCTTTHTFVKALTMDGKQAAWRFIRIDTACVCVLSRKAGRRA

B1: SSM-36 (LC SSM135LCR53S, HC SSM135HCG31E) (antibody, V domains shown)
VH: EVQLVESGGDLARPGGSLKLSCVVSGFSLIEYDINWVRQAPGKGLQWVTMIWGDGTTDYNSALKSRFTVSRDNAMNTVYLQMNSLRVEDTAVYYCARGGYYYATSYYFDYWGQGTLVTVSS
VL: DIVMTQTPLSLSVSPGETASISCRASQDISNNLNWFRQKPGQSPQRLIYYISSFHSGVPDRFSGSGSGTDFTLRISRVEADDTGVYYCQQSKTLPYTFGAGTKLEIK
notes: Both chains are built on the LTM135 template (HC G103A, LC H32N)
B2: LTM construct 32 (HC Y100W, LC D28S) (antibody, V domains shown)
VH: EVQLVESGGDLARPGGSLKLSCVVSGFSLIGYDINWVRQAPGKGLQWVTMIWGDGTTDYNSALKSRFTVSRDNAMNTVYLQMNSLRVEDTAVYYCARGGWYYGTSYYFDYWGQGTLVTVSS
VL: DIVMTQTPLSLSVSPGETASISCRASQSISNHLNWFRQKPGQSPQRLIYYISRFHSGVPDRFSGSGSGTDFTLRISRVEADDTGVYYCQQSKTLPYTFGAGTKLEIK
notes: Point mutant of canE3M65, converted into full IgG and expressed in HEK293; The canine constant regions are not restated
B3: LTM construct 33 (HC Y100W, LC *D28S, NH31HN) (antibody, V domains shown)
VH: EVQLVESGGDLARPGGSLKLSCVVSGFSLIGYDINWVRQAPGKGLQWVTMIWGDGTTDYNSALKSRFTVSRDNAMNTVYLQMNSLRVEDTAVYYCARGGWYYGTSYYFDYWGQGTLVTVSS
VL: DIVMTQTPLSLSVSPGETASISCRASQSISHNLNWFRQKPGQSPQRLIYYISRFHSGVPDRFSGSGSGTDFTLRISRVEADDTGVYYCQQSKTLPYTFGAGTKLEIK
notes: Point mutant of canE3M65 as full IgG
B4: LTM construct 36 (HC Y100W, LC K92D) (antibody, V domains shown)
VH: EVQLVESGGDLARPGGSLKLSCVVSGFSLIGYDINWVRQAPGKGLQWVTMIWGDGTTDYNSALKSRFTVSRDNAMNTVYLQMNSLRVEDTAVYYCARGGWYYGTSYYFDYWGQGTLVTVSS
VL: DIVMTQTPLSLSVSPGETASISCRASQDISNHLNWFRQKPGQSPQRLIYYISRFHSGVPDRFSGSGSGTDFTLRISRVEADDTGVYYCQQSDTLPYTFGAGTKLEIK
notes: Point mutant of canE3M65 as full IgG; Constant regions are not restated
B5: LTM construct 37 (HC Y100W, LC *D28S, NH31HN, S91Y) (antibody, V domains shown)
VH: EVQLVESGGDLARPGGSLKLSCVVSGFSLIGYDINWVRQAPGKGLQWVTMIWGDGTTDYNSALKSRFTVSRDNAMNTVYLQMNSLRVEDTAVYYCARGGWYYGTSYYFDYWGQGTLVTVSS
VL: DIVMTQTPLSLSVSPGETASISCRASQSISHNLNWFRQKPGQSPQRLIYYISRFHSGVPDRFSGSGSGTDFTLRISRVEADDTGVYYCQQYKTLPYTFGAGTKLEIK
notes: as for B3
B6: LTM construct 38 (HC Y100W, LC D28S, NH31HN, K92D) (antibody, V domains shown)
VH: EVQLVESGGDLARPGGSLKLSCVVSGFSLIGYDINWVRQAPGKGLQWVTMIWGDGTTDYNSALKSRFTVSRDNAMNTVYLQMNSLRVEDTAVYYCARGGWYYGTSYYFDYWGQGTLVTVSS
VL: DIVMTQTPLSLSVSPGETASISCRASQSISHNLNWFRQKPGQSPQRLIYYISRFHSGVPDRFSGSGSGTDFTLRISRVEADDTGVYYCQQSDTLPYTFGAGTKLEIK
notes: as for B4
B7: LTM construct 39 (HC Y100W, LC D28S, S91Y) (antibody, V domains shown)
VH: EVQLVESGGDLARPGGSLKLSCVVSGFSLIGYDINWVRQAPGKGLQWVTMIWGDGTTDYNSALKSRFTVSRDNAMNTVYLQMNSLRVEDTAVYYCARGGWYYGTSYYFDYWGQGTLVTVSS
VL: DIVMTQTPLSLSVSPGETASISCRASQSISNHLNWFRQKPGQSPQRLIYYISRFHSGVPDRFSGSGSGTDFTLRISRVEADDTGVYYCQQYKTLPYTFGAGTKLEIK
notes: as for B4
B8: LTM construct 110 (HC Y101W, G103A; LC K92D) (antibody, V domains shown)
VH: EVQLVESGGDLARPGGSLKLSCVVSGFSLIGYDINWVRQAPGKGLQWVTMIWGDGTTDYNSALKSRFTVSRDNAMNTVYLQMNSLRVEDTAVYYCARGGYWYATSYYFDYWGQGTLVTVSS
VL: DIVMTQTPLSLSVSPGETASISCRASQDISNHLNWFRQKPGQSPQRLIYYISRFHSGVPDRFSGSGSGTDFTLRISRVEADDTGVYYCQQSDTLPYTFGAGTKLEIK
notes: as for B3
B9: LTM construct 111 (HC Y101W, G103A; LC *D28S, NH31HN, S91Y) (antibody, V domains shown)
VH: EVQLVESGGDLARPGGSLKLSCVVSGFSLIGYDINWVRQAPGKGLQWVTMIWGDGTTDYNSALKSRFTVSRDNAMNTVYLQMNSLRVEDTAVYYCARGGYWYATSYYFDYWGQGTLVTVSS
VL: DIVMTQTPLSLSVSPGETASISCRASQSISHNLNWFRQKPGQSPQRLIYYISRFHSGVPDRFSGSGSGTDFTLRISRVEADDTGVYYCQQYKTLPYTFGAGTKLEIK
notes: The '*' is not explained
B10: LTM construct 112 (HC Y101W, G103A; LC D28S, NH31HN, K92D) (antibody, V domains shown)
VH: EVQLVESGGDLARPGGSLKLSCVVSGFSLIGYDINWVRQAPGKGLQWVTMIWGDGTTDYNSALKSRFTVSRDNAMNTVYLQMNSLRVEDTAVYYCARGGYWYATSYYFDYWGQGTLVTVSS
VL: DIVMTQTPLSLSVSPGETASISCRASQSISHNLNWFRQKPGQSPQRLIYYISRFHSGVPDRFSGSGSGTDFTLRISRVEADDTGVYYCQQSDTLPYTFGAGTKLEIK
notes: as for B3

Target: T1, recombinant canine Nerve Growth Factor …
Assay: SPR, 1:1 binding fit, canine NGF
For B1, the Kd was 40.2 nM, the koff was 0.00033 s⁻¹ and the kon was 8200 M⁻¹ s⁻¹.

Target: T1, recombinant canine Nerve Growth Factor …
Assay: SPR, Biacore T100, dog NGF; run 11/22
For B2, the Kd was 2.25 nM. B3: no binding. B4 was tested, and the Kd was 5.5 nM. B5 was tested, and the Kd was 1.91 nM. B6 showed a Kd of 2.15 nM. B7: no binding.

Target: T1, recombinant canine Nerve Growth Factor …
Assay: SPR, Biacore T100, dog NGF; run 11/29; comment 'Agg?'
With B8 the Kd was 0.942 nM. B9 showed a Kd of 0.0288 nM. In the case of B10, the Kd is reported as 0.0152 nM.

Target: T1, recombinant canine Nerve Growth Factor …
Assay: SPR, Biacore T100, dog NGF; run 11/24; comment 'Agg?'
In the case of B8, the Kd is reported as 3.26 pM. In the case of B9, the Kd is reported as 146 pM. Binder B10 has a Kd of 1.65 pM.
